{
  "source": "the nanobody polyreactivity screen of Harvey et al. (2022)",
  "data": [
    {"assay": "yeast display, Sf9 membrane polyspecificity reagent, FACS + sequencing; frameworks hold sequencing errors", "outline": "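After 36–48 hours of galactose induction, yeast (Saccharomyces cerevisiae BJ5465) displaying a synthetic nanobody library were stained at 4 °C for 1 hour with 10% biotinylated, detergent-solubilized Sf9 membrane reagent. Streptavidin microbeads enriched the stained cells before FACS sorting into low and high (top ~1%) gates on anti-HA and streptavidin fluorescence. Each clone's polyreactivity label reflects its gate of origin.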", "values": [
      {"sequence": "QVQLVESGGGLVQAGGSLRLSCAASGSTFSGYMGWNRQAPGKERELVAAITSGGSTNYADSVKGRFTISRDNAENTVYLQMNSLKPEDTAVYYCAAQGRWLGWRGYDYWGLGTQVTVSS", "polyreactivity (PSR sort gate)": "high polyreactivity"},
      {"sequence": "QVQLVESGGGLVQAGGSLRLSCAASGSTFSHNAMGWSIQAPWKERELLASISSGANTYYADSVKGRFTISRDNAKNTVYLHMNSLKPEVTAVYYCAAGAHAYDHYSWFYFRMHYWGQGTQVTVSS", "polyreactivity (PSR sort gate)": "low polyreactivity"},
      {"sequence": "QVQLVESGGGLVQAGGSLRLSCAASGSTFSHNAMGWYRQAPGKERELVAAIRWNGGSTHYADSVKVRFTISRDNAKNTVYLQMNSLKPEDTAVYYCAKENHYFTQGYGYWGQGTQVTVSS", "polyreactivity (PSR sort gate)": "low polyreactivity"},
      {"sequence": "QVQLVESGGGLVQAGGSLRLSCAASGSTFSHYAMGWYRQAPGKERELVATITYSGGSTYYADSVKGRFTISRDNAKNTVYLQMNSMKPEDTAVYYCAARPRFITYKRYYWGQGTQVTVSS", "polyreactivity (PSR sort gate)": "high polyreactivity"},
      {"sequence": "QVQLVESGGGLVQAGGSLRLSCAASGSTFSIYAMGWYRPAPGKERELVAAITGTVGSTYYADSVKGRFTISRDNAKNTVYLQMNSLKPEDTAVYYCAARQVNYDYDYWGQGTQVTVSS", "polyreactivity (PSR sort gate)": "low polyreactivity"},
      {"sequence": "QVQLVESGGGLVQAGGSLRLSCAASGSTFSIYAMGWYRQAPGKEREFVAAISSSSGSTYYADSVKGRFTISRDNAMNTVYLQMNSLKPEDTAVYYCIRRYRRGGVKGVYYWGQGTQVTVSS", "polyreactivity (PSR sort gate)": "high polyreactivity"},
      {"sequence": "QVQLVESGGGLVQAGGSLRLSCAASGSTFSIYAMGWYRQAPGKERELVAAISSDSTYYADSVKGRFTISRDNAKNSVYLQMNSLKPEDTAVYYCAADPYFPKYYYWGQGTQVTVSS", "polyreactivity (PSR sort gate)": "low polyreactivity"},
      {"sequence": "QVQLVESGGGLVQAGGSLRLSCAASGSTFSIYAMGWYRQAPGKERELVAAISSDSTYYADSVKGRFTISRDNAKNTVYLQMNSLKPEDTAVYYCAADPYFPKYYYWGQGTQVTVSS", "polyreactivity (PSR sort gate)": "low polyreactivity"},
      {"sequence": "QVQLVESGGGLVQAGGSLRLSCAASGSTFSKNAMAWYRQAPGKERELVASISSSGGSTYYADSVKGRFTISRDTAKNTVYLQLNSLKPEDTAVSYCATRRGRGYYYWGQGTQVTVSS", "polyreactivity (PSR sort gate)": "high polyreactivity"},
      {"sequence": "QVQLVESGGGLVQAGGSLRLSCAASGSTFSKNAMGWYRQAPGKERELVAAINWSTGSTHYADSVKGRFTISRDNAKNTVYLQMNRLKPEDTAVYYCAAEGPKQYDYWGQGTQVTVSS", "polyreactivity (PSR sort gate)": "low polyreactivity"},
      {"sequence": "QVQLVESGGGLVQAGGSLRLSCAASGSTFSKYAMGCYRQAPGKERELVAAISSGGRTNYADSVKGRFTISRDNAKNTVYLQMNSLKPEDTAVYFCAALLGYWAYYYWGQGSQVTVSS", "polyreactivity (PSR sort gate)": "low polyreactivity"},
      {"sequence": "QVQLVESGGGLVQAGGSLRLSCAASGSTFSKYAMGWYRQAPGKERELVAGISRRVGSTYYADSVKGRFTISRDNAKNTVYFQMNSLKPEDTAVYYCNKVRGYPWQVVGYDYWGQGTQVTVSS", "polyreactivity (PSR sort gate)": "high polyreactivity"},
      {"sequence": "QVQLVESGGGLVQAGGSLRLSCAASGSTFSKYAMGWYRQAPVKERELVAGIRGRGGSAYYADSVKGRFTISRDNAKNTVYLQMNSLKPEDTAVYYCAKEARLWGQGTQVTVSS", "polyreactivity (PSR sort gate)": "low polyreactivity"},
      {"sequence": "QVQLVESGGGLVQAGGSLRLSCAASGSTFSKYVMGWYRQATGKERELVAAISGGDRTYYADSVKGRFTISRDNAKNTVYLQMNSLKPEDTAVYYCAAEVLKTRWSYDYWGQGTQVTVSS", "polyreactivity (PSR sort gate)": "high polyreactivity"},
      {"sequence": "QVQLVESGGGLVQAGGSLRLSCAASGSTFSLYAMGWYRQAPGKERELVASSRWSGGRTYDADSVKGRFTISRDNAKNTVYLQMNSLKPEDTAVYYCAAAWRYGYGYLGQGTQVTVSS", "polyreactivity (PSR sort gate)": "high polyreactivity"},
      {"sequence": "QVQLVESGGGLVQAGGSLRLSCAASGSTFSNNAMGWYRQAPGKERELVASTNYADSVKGRFTISRDNAKNTVYLQMNSLKPEDTAVYYCAAGAYPSWGHDYWGQGTQVTVSS", "polyreactivity (PSR sort gate)": "low polyreactivity"},
      {"sequence": "QVQLVESGGGLVQAGGSLRLSCAASGSTFSPYALGWYRQATGKERELVAAISASGVGTYYADSVKGRFTISRDYAKNPVYLQMNRLIPEDTAVYYCCRDYGWDISKGRYGYWGQGTQVTVSS", "polyreactivity (PSR sort gate)": "low polyreactivity"},
      {"sequence": "QVQLVESGGGLVQAGGSLRLSCAASGSTFSPYAMGCYRQAPGKERELVAAINYSSGSTYYADSVKGRFTISRDNAMNTVYLQLNSLKPEDTAVYYCATGWYAGFTYDYWGQGTQVTVSS", "polyreactivity (PSR sort gate)": "low polyreactivity"},
      {"sequence": "QVQLVESGGGLVQAGGSLRLSCAASGSTFSPYAMGWYRQAPGKERELVAAIRRGGSTNYADSVKGRFTISRDNAKNTVYLQMNSLKPEDTAVYYCAATKRRFVKFDYWGQGTQVTVSS", "polyreactivity (PSR sort gate)": "low polyreactivity"},
      {"sequence": "QVQLVESGGGLVQAGGSLRLSCAASGSTFSPYAMGWYRQAPGKERELVAGITSSGGDTYYADSVKGRFTISRDNAKNTVYLQMNSLKPEDTAVYYCAAGLQGYPRKFNYWGQGTQVTVSS", "polyreactivity (PSR sort gate)": "low polyreactivity"},
      {"sequence": "QVQLVESGGGLVQAGGSLRLSCAASGSTFSQNAMGWYRQAPGKERELVAVISSSGGRTNYADSVKGRFTISRDNAKNTVYLQMNSLKPEDSAVYYCAKRLRVLYYYWGQGTQVTVSS", "polyreactivity (PSR sort gate)": "high polyreactivity"},
      {"sequence": "QVQLVESGGGLVQAGGSLRLSCAASGSTFSQNAMGWYRQAPGKERELVAVISSSGGRTNYADSVKGRFTISRDNAKNTVYLQMNSLKPEDTAVYYCAKRLRVLYYYWGQGTQVTVSS", "polyreactivity (PSR sort gate)": "high polyreactivity"},
      {"sequence": "QVQLVESGGGLVQAGGSLRLSCAASGSTFSQYAMGWYRQAPGKERELVAAITGSTGSTYYADSVKGRFTISRDNAKNTVYLQMNSLKPEDTAVYYCAAVSSNARHVSRRRGYYWGQGTQVTVSS", "polyreactivity (PSR sort gate)": "high polyreactivity"},
      {"sequence": "QVQLVESGGGLVQAGGSLRLSCAASGSTFSQYAMGWYRQAPGKERELVAAITRGGRTYYADSVKGRFTISRDNAKNTVYLQMNSLKPEDTAVYYCNAVLGLLYGYDYWGQGTQVTVSS", "polyreactivity (PSR sort gate)": "high polyreactivity"},
      {"sequence": "QVQLVESGGGLVQAGGSLRLSCAASGSTFSRDAMRWYRQPPGKERELVAAISSVGDTYYADSVKGRFTISRDNAKNTVYLQMNSLKPEDTAVYYCGATFVVKGTRFGYWGQGTQVTVSS", "polyreactivity (PSR sort gate)": "high polyreactivity"},
      {"sequence": "QVQLVESGGGLVQAGGSLRLSCAASGSTFSRNAMGWSRQAPGKERELVAAISRRGGTTNYADSVKGRFTISRDNAKNTVYLQMNSLKPEDTAVYYCNAQPGDYWGQGTQVTVSS", "polyreactivity (PSR sort gate)": "high polyreactivity"},
      {"sequence": "QVQLVESGGGLVQAGGSLRLSCAASGSTFSRNAMGWYRQAPGKERELVAGITTSGGRTYYADSVKGRFTISRDNAKNTVYLQMNSLKPEDTAVYYCANSGYRYFYGRPRFDYWGQGTQVTVSS", "polyreactivity (PSR sort gate)": "high polyreactivity"},
      {"sequence": "QVQLVESGGGLVQAGGSLRLSCAASGSTFSRNTMGWYRQAPGKERELVAAISKSGGRTYYADSVKGRFTISRDNAKNTVYLQMNSLKPEDTAVYYCNAAVYAYASDYWGQGTQVTVSS", "polyreactivity (PSR sort gate)": "high polyreactivity"},
      {"sequence": "QVQLVESGGGLVQAGGSLRLSCAASGSTFSRYAMGLYRQATGKDRELVAAISWRGGRTYYADSVKGRFTISRDNAKNTVYLQMNSLKPEDTAVDYCAGLGDDATSYGYWGHGTQVTVSS", "polyreactivity (PSR sort gate)": "high polyreactivity"},
      {"sequence": "QVQLVESGGGLVQAGGSLRLSCAASGSTFSRYAMGWYRQAPGKERELVAAISSSGGSTYYADSVKGRFTISRDNAKNTVYLQMNSLKPEDTAVYYCAARIWRTRRYDYWGQGTQVTVSS", "polyreactivity (PSR sort gate)": "high polyreactivity"},
      {"sequence": "QVQLVESGGGLVQAGGSLRLSCAASGSTFSRYAMGWYRQAPGKERELVAAISWRGGRTYYADSVKGRFTISRDNAKNTVYLQMNSLKPADTAVYYCNAVSYFTSQRYDYWGQGTQVTVSS", "polyreactivity (PSR sort gate)": "high polyreactivity"},
      {"sequence": "QVQLVESGGGLVQAGGSLRLSCAASGSTFSRYTMGWYRQAPGKERELVAAISYRGGSTYYADSVKGRFTISRDNAKNTVYLQMNSLKPEDTAVYYCAAEYRVEGSDYDYWGQGSQVTVSS", "polyreactivity (PSR sort gate)": "low polyreactivity"},
      {"sequence": "QVQLVESGGGLVQAGGSLRLSCAASGSTFSRYTMGWYRQAPGKERELVAAITWSGGRTYYADSVKGRFTISRDNAKNTVYLQMNSLKPEDTAVSYCNVDSSRYSGYDYWGQGTQVTVSS", "polyreactivity (PSR sort gate)": "high polyreactivity"},
      {"sequence": "QVQLVESGGGLVQAGGSLRLSCAASGSTFSSNAMGWYRQAPGKERELVAAIDRGGSTYYADSVKGRFTISRDNAKNTVYLQMNSLKPEDTAVYYCAKGFDFRRRYDYWGQGTQVTVSS", "polyreactivity (PSR sort gate)": "low polyreactivity"},
      {"sequence": "QVQLVESGGGLVQAGGSLRLSCAASGSTFSSYAMAWYRQAPGKERELVAAISSVGVDTYYADSVKGRFTISRDNAKNTVYLQMISLKPEDTAVYYCAAGRYGWWRHYFVFKYDYWGQGTQVTVSS", "polyreactivity (PSR sort gate)": "low polyreactivity"},
      {"sequence": "QVQLVESGGGLVQAGGSLRLSCAASGSTFSSYAMGWYIQAPGKERELVAAITSSGGTTYYSDSVKGRFTISRDNAKNTVYLQMNSLKPEDTAVYYCAAADVIFWLYYYWGQGTQVTVSS", "polyreactivity (PSR sort gate)": "low polyreactivity"},
      {"sequence": "QVQLVESGGGLVQAGGSLRLSCAASGSTFSSYAMGWYRPAPGKERELVAAITSSGGSTYYADSVKGRFTISRDNAKNTVYLQMNSLKPEDTAVYYCAAADVIFWLYYYWGQGTQVTVSS", "polyreactivity (PSR sort gate)": "low polyreactivity"},
      {"sequence": "QVQLVESGGGLVQAGGSLRLSCAASGSTFSSYAMGWYRQAPGKERELVAAINWSGTRTYYADSVKGRFTISRDNAKNTVYLQMNSLKPEDTAVYYCAAVLSLSSRQGVITKGDYWGQGTQVTVSS", "polyreactivity (PSR sort gate)": "low polyreactivity"},
      {"sequence": "QVQLVESGGGLVQAGGSLRLSCAASGSTFSSYAMGWYRQAPGKERELVAAISSSGVRTYYADSVKGRFTISRDNAKNSVYLQMNSLKPEDTAVYYCKLTLLTVNRTGMTTWGQGTQVTVSS", "polyreactivity (PSR sort gate)": "high polyreactivity"},
      {"sequence": "QVQLVESGGGLVQAGGSLRLSCAASGSTFSSYAMGWYRQAPGKERELVAGIAWGGSSTDYADSVKWRFTISRDTAKNTVYLQMNSLKPEDTAVYYCARRYRRGWSTLDYWGQGTQVTVSS", "polyreactivity (PSR sort gate)": "low polyreactivity"},
      {"sequence": "QVQLVESGGGLVQAGGSLRLSCAASGSTFSTNAMGWYRQAPAKERELVAAISYSGGSTYYADSVKGRFTISRDNAKNTVYLQMLSLKPEDTAVYYCAADGYYYNSGGRYYEFYYWGQGTQVTVSS", "polyreactivity (PSR sort gate)": "low polyreactivity"},
      {"sequence": "QVQLVESGGGLVQAGGSLRLSCAASGSTFSTNAMGWYRQAPGKESELVASITRSGGSTYYADSVKGRFTISRDNAKNTVYLQMNSLKPEDTAVYYCNADGYYDYDYGYWGQGTQVTVSS", "polyreactivity (PSR sort gate)": "low polyreactivity"},
      {"sequence": "QVQLVESGGGLVQAGGSLRLSCAASGSTFSTNAMGWYSPAPGKERELVAASTVSGGRTYYADSVKGRFTISRDNAKNTVYLQMNSLKPEDTAVYYCATDTSRLSIFGYVSFYYWGQGTQVNVSS", "polyreactivity (PSR sort gate)": "low polyreactivity"}
    ]}
  ]
}
